In the nanobody polyreactivity screen of Harvey et al. (2022):

Assay: yeast display, Sf9 membrane polyspecificity reagent, FACS + sequencing; frameworks hold sequencing errors
How it was run: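 A nanobody's polyreactivity label depends on the gate it was sorted from. Yeast display cells were stained with 10% biotinylated, detergent-solubilized Sf9 membrane reagent for 1 hour at 4 °C, enriched on streptavidin microbeads and sorted by FACS. The low and high (top ~1%) gates were set on anti-HA fluorescence for expression and streptavidin fluorescence for reagent binding.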

| Sequence | polyreactivity (PSR sort gate) |
| --- | --- |
| QVQLVESRGGLVQAGGSLRLSCAASGSIFNANAMGWYRQAPGKEREIVAAITRAGGGTYYADSVKGRFTISRVNAKNTVYLQMNRLKPEDTAVYYCAREVFFYASTGQTYGYWGQGTQVTVSS | high polyreactivity |
| QVQLVESRGGLVQAGGSLRLSCAASGSIFTSYAMGWYRQAPGKERELVAAINGSGGSTFYADSVKGRFTISRDNAKNTVYLQMNSLKPQDTAVYYCNTGGPRGTTYDYWGQGTQVTVSS | low polyreactivity |
| QVQLVESRGGLVQAGGSLRLSCAASGSILVRYAMGWDRQAPGKERELVAAITGTSGGTYYADSVKGRFTISRDNAKNTVYLQMNSLKPEDTAVYYCNADGGSGAYLDLTITDYDYWGQGTQVTVSS | low polyreactivity |
| QVQLVESRGGLVQAGGSLRLSCAASGSNFYRNALGWYRQAPGKERELVAAISSDGSTNYADSVKGRFTISRDNAKNTVYLQLNSLKPEDTAVYSCAPHDRWHHRSLPYEYWGQGTQVTVSS | low polyreactivity |
| QVQLVESRGGLVQAGGSLRLSCAASGYIFSYNAMGCYRQAPGKERELVAATSSRGGSTYYADSVKGRFTISRDNAKNPDYLQMNSLKPEDTAVYFCAVSSRRVDTEPYDYWGQGTQVTVSS | high polyreactivity |
| QVQLVESRGGLVQAGGSLRLSCAASRRIFVRNAIGWYIQEPGKERELVAAISSSGGPTYYADSVKGRFTISRDNAKNTVYLQMNSLKPEDTAVYYCAASSSNKEYDYWGQGTQVTVSS | high polyreactivity |
| QVQLVESRGGLVQAGGSLRLSCAPSGIIFVRYAMGWYRQAPGKETELVAAISSSGGSTYYADSVKGRFTISRDNAKKTVYLQMNSLKPEDTAVYYCNARHRQWARGYWGQGTQVTVSS | high polyreactivity |
| QVQLVESRGGLVQAGGSLRLSCASSGSIFFSNAMGWYRQAPGKERELVAAISKSGGSTYYADSVKGRFTISRDNAKNTVYLQMNSLKPEDTAVYYCAAERTFLYWAYDYWGQGTQVTVSS | high polyreactivity |
| QVQLVESRGGLVQAGGSLRLSCASSGSTFVPNAMGWYRQAPGNERELDAAITFSGGTTYYADSVKGRFTISRDNAKNTVYFQMNSLKPEDTAVYDCAADYFSNLWWSGHAWRYYYWGQGTQVTVSS | low polyreactivity |
| QVQLVESRGGLVQAGGSLRLSCATSGRIFAKYAMGWYRQAPGKESELVAAITTTGRTYYADSVKGRFTISRDNAKNTVYLQMNSLKPEDTAVYYCAVGYHAPKVSTSDARYDYWGQGTQVTVSS | low polyreactivity |
| QVQLVESRGGLVQAGGSLRLSCDASGIIFVKYAMGWYRQAPGKERELVAAITSGGSTYYADSVKVRFTISRDNAKNTVYLQMNSLKPEDTAVYYCNADSWFLYYFTINGYWGQGTQVTVSS | high polyreactivity |
| QVQLVESRGGLVQAGGSLRLSFAASGSIFTPYTMGWDRPAPGKERELVAAITGSAGSTYYADSVKGRFTISRDNAKNTVYLQMNSLKPEDTAVYYCAAAVWGVYQWYYYWGQGTQVTVSS | high polyreactivity |
| QVQLVESRGGLVQAGGSLRLSFPASGFTQEFYAMGWYRQAPGKERELVASISSGGRTNYADSVKGRFTISRDNAKYTVYLQMNSLKPEDTAVYYFAAEYRSWGRYRYRFNYWGQGTQVTVSS | high polyreactivity |
| QVQLVESRGGLVQAGGSLRLSSAASGSTYGVNPMGWYRQAPGKERELVAAISVSGGRTYYADSVKGRFTISRDNAKNTVDLQMNSLKPEDTAVYYCNADGLYAYVWYDYWGQGTQVSVSS | low polyreactivity |
| QVQLVESRGGLVQAGGSLRLSYAASGITFRKYAIGWYRQAPGKESELVAAISWSGGSTYYADSVKGGFTISRDNAMNTVYLQMNSMKPEDTAVYYCAAPHWSPYDYWGQGTQVTVSS | high polyreactivity |
| QVQLVESRGGLVQARGSLRLSCAASGSTFVYYALGWYRTAPGTERELVAAITQRGGNTYYADSVKGRFTISRDNAKNTVYLQMNSLKPVDTAVYYCATKSYSQYFKFYYWGQGTQVTVSS | high polyreactivity |
| QVQLVESRGGLVQEVGSLRLSCAASGRIFYRYYMGWYRQAPGKERELVASITRSGITHYADSVKGRFTISRDNATNTVYLQMNSLKPEDTAVYYCAVDLLRRGFPTVVTTYDYWGQGTQVTVSS | high polyreactivity |
| QVQLVESRGGLVQSGGSLRLSCAASGSIFEIYHMGRYRQAPGNERELVASIRTSGGSTYYADSVKGRFTISRDNAKNTVYLQMNSLKPEDTAVYYCAAVGRSYYGHDYWGQGTQVTVSS | low polyreactivity |
| QVQLVESRVGLVQAGGSLRLSCAASGRIFHYYAMGWYRQAPGKERELVAAINASGTSTYYADSVKGRFTISRDNAKNTVYLQMNSLKPEDTAVYYCAAQPYYRGGSYSYTRNSKLIYWGQGTQVTVSS | high polyreactivity |
| QVQLVESRWRFVQAGGSLRLSCAASGSIFADYAMGWYRQAPGKERELVAAITFSGGSTYYADSVKGRFTISRDNAKNTVYLQMNSLKPEDTAVYYCASRWRYRYYSWGQGTQVTVSS | high polyreactivity |
| QVQLVESSGGLVQAGGSLSLICAASGIIFYGYAMGWYRQAPGKERELVASIRSGSNTYYADSVKGRFTISRDNAKNTVYLQMNSLKPEDTAFYSCAARVVPATFRFIRYPHPYYYWGQGTQVTVSS | low polyreactivity |
| QVQLVESVGALVQAGGSLRLSCAASGSIFIPYAMGWYRQAPGKEWEFVATITFGAASTYYADSVKGRFTISRDNAKNTVYLQMNSLKPEDTAVYYCNAEGYVYPYYREGDYWGQGTQVTVSS | low polyreactivity |

| Sequence | polyreactivity (PSR sort gate) |
| --- | --- |
| QVQLVESVGCLVQAGGSLRLSCAASGFIFGSYTMGWYRPAPGKESELVAAISSSGGNTYYADSVKGRFTISRDHAKNTVYLQMNSLKPEDTAVYYCAVDYIYDDAYNYWGQGTQVTVSS | high polyreactivity |
| QVQLVESVGCLVQAGGSLRLSCAASGRIFTSNAMGWYRQAPGKERELVAAITRRGGTTYYADSVKGRFTISRDNSKNTVYFQMNSLNPEDTAVYYCATIITVASWYDYWGQGTQVTVSS | low polyreactivity |
| QVQLVESVGGFVQAGGSLRLSCAASGFTFRIYAMGLYRKATVKERELVAGITWSVGSTYYADSVKGRFTISRDNAKNTVYLQMNSLKPEETAVYYCAVRRNQHVVQLYYWGQGTQGTVSS | low polyreactivity |
| QVQLVESVGGFVQAGGSLRLSGAASGRTFNFNTMGWSRQAPGKERELVASITSGGSTNYADSVKVRFTISRDNAKNTVYLQMNILKPEDPAVYYCAVTVSGPYAYDYWGQGTQVTVSS | low polyreactivity |
| QVQLVESVGGFVQAGGSLRLSSAASGFIFRSYAMGSYRQAPGKERELVAVISRRGVNTHYADSVKGRFTISRDYAKYTVYLQMNSLKPEDTAVYDCAKGLTALGDYWGQGSQVTVSS | high polyreactivity |
| QVQLVESVGGFVQARGSLRLSCAASGFTFSYNAMRWYSQAPGKERELVATIRSSGGSTNYADSVKGRFTISRDNAKNTVYVQMNSLKPEDTAVYYCAADFSYYSTYDYWGLGTQVTVSS | low polyreactivity |
| QVQLVESVGGIVQAGGSLRLSCAASGRIFGTNTMGWYRQAPGKERELVAGISSSGDSTYYADSVKGRFTISRDNAKNTVYLQMNSLKPEDTAVYYCNVYDYPTYDYWGQGTQVTVSS | low polyreactivity |
| QVQLVESVGGLLQAGGSLRLSCAASGSIFFVYTMGWYRQAPGKERELFATITDSDGGTYYADSVKGRFTISRDNAKNTVYVQMNSLKPEDTAVYYCAAEVEVYFAIYEYWGQGTQVTVSS | low polyreactivity |
| QVQLVESVGGLVKAGGSLRLSCAASGSIFGTNAMGWYRQAPGKERELVAVISDGGSTYYADSVKGRFTISRENAKNTVYLQMNSLKPADTAVYYCNTPLESPFYSRVGTTESDHWGQGTQVTVSS | low polyreactivity |
| QVQLVESVGGLVLAGARLRLSCAASGRIFRFYAMGWYREAPGKERELVAAISSGGRTYSADSVKGRFTISRDNAKNTVYLQMNSLKPEDTAVYYCNTPYTVRGRYTSDYWGQGTQVTVSS | high polyreactivity |
| QVQLVESVGGLVPAGGSLRLSCAASGFTYPAYTMGWYRQAPGKERELVAAITSSGGNTYYADSVKGRFTISRDNAKNTVYLQMNSLKPEDTAVYYCYADASSSPYTDRQYIGADDSWGQGTQVTVSS | low polyreactivity |
| QVQLVESVGGLVQAGGILRLSCAASGSTFLDNAMGLYRQAPGKERELVAAITQSGSSTYYADSVKGRFTISRDNAKNTVYLQMNSLKPEDTAVYYCAADVPIISFDYWGQGTQVTVSS | low polyreactivity |
| QVQLVESVGGLVQAGGRLRLSCAASGLIFDDYSMGCYRQAPGKEREFVSAISWSDGTTYYADSVKGRFTISRDNAKNTVYLQMNSLKPEDTAVYYCAARLARAGYWRRNYYYWGQGTQVTVSS | high polyreactivity |
| QVQLVESVGGLVQAGGRLRLSCAASGLTFTHYTMGWYIQAPGKERELVAAISQTGGSTYYADSVKGRFTISRDNEKNTVYLQMNSQKPEDTADYYCSRVFPRPRPGYYNWGQGTQVTVSS | high polyreactivity |
| QVQLVESVGGLVQAGGSLGLTCAASGFIFRYYAMGWYRQAPGLERELVAPINASGGRTYYADSVKGRFTISRDNARNTLYLQMNSLKPEDTAVYYCAAYRSYQTFDYWGQGTQVTVSS | high polyreactivity |
| QVQLVESVGGLVQAGGSLLLSCAASGRTFTKYAMGWYRLAPGKEGELVAAISRSGTSTYYADSVKGRFTISRDNEKNTVYLQMNSLKPEDTAVYYCATVSAKYHSVHFGYWGQGTQVTVSS | high polyreactivity |
| QVQLVESVGGLVQAGGSLRLICAASGRIFVHYAMGWYRQAPGKERELVAAISWNGGRTFYADSVKGRFTISRDNAKNTVYLQMNSLKPEDTAVSYCAARSRYSLDYWGQGTQVTVSS | high polyreactivity |
| QVQLVESVGGLVQAGGSLRLICAASGSIFIGYAMGWYRQAPGKERELVAAISNSGGRTYYADSVKGRFTISRDYAKNTVYLQMNSLKPDDTAVYYCAARLRYRGRRYDYWGQGTQVTVSS | high polyreactivity |
| QVQLVESVGGLVQAGGSLRLICAASGSIFSRYAMGWYRQAPGKEREFVARITQRGGSTYYADSVKGRFTISRDNAKNTVYLQRQSLKPEDTAVYYCNADHYRRLLAEDYWGQGTQVTVSS | low polyreactivity |
| QVQLVESVGGLVQAGGSLRLSCAASGDTFTSYAMGRYRQAPGKVRELVAAISRRGGSTYYAESVKGRFTISRDNAKNTVYLLMNSLKPEDTAFYYCAAKSYSYTEFDYGGQGTQVTVSS | high polyreactivity |
| QVQLVESVGGLVQAGGSLRLSCAASGFIFGSNAIGWYRQAPGKERELVAAITYSGASTYYADSVKGRFTISRDNAKNTVYLQMNRLKPEDTAVYYCATRYSVFVSGRFNYWGQGTQVTVSS | low polyreactivity |
